Article PMC3072105 (Nature Communications, 2011)

B1: synthetic φD peptide (peptide)
peptide: GNHAEIYSNHHMMSHVGGGR

Columns and labels:
[1] = molecular target: full-length KvAP-T225C (Aeropyrum pernix); assay: cross-linking
[2] = molecular target: T1, KvAP channel from Aeropyrum pernix, wild type (Aeropyrum pernix, UniProt Q9YDF8 14-295); assay: electrophysiology
T1 sequence (looked up): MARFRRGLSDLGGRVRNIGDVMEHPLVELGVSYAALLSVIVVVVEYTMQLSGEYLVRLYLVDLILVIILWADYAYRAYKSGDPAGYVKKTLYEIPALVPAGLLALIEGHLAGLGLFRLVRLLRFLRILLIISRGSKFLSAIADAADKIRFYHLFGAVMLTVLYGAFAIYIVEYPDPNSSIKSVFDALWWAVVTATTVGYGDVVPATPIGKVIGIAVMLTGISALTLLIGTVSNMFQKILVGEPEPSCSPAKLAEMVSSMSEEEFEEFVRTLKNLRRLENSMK

Row | Molecule | stoichiometry N [1] | Kd [2] [µM]
1 | full-length KvAP-T225C (natural protein) | 4 | –
2 | B1 | – | 21.2 ± 3.5
